Source: publication PMC7719796, “Structural Insights on Tiny Peptide Nucleic Acid (PNA) Analogues of miRNA-34a: An in silico and Experimental Integrated Approach” (Frontiers in Chemistry, 2020)

Tested on: Kelly neuroblastoma cells
Assay: PNA cellular uptake assay (fluorescence of cell lysate)
Type: cell-based, Human
Settings: 0.1 μM in Opti-MEM, no transfecting agent, 24 h incubation (text; method: 6 h at 37°C, then 48 h), fluorescence of cell lysate and media 485/535 nm, 3 biological repeats and 4 technical repeats
Source text: Cellular uptake of the described tiny PNA sequence was studied in vitro on Human Kelly neuroblastoma cell line, without the use of any transfection agents, and compared to previously reported results from our group (Piacenti et al., [2019]). In particular, the PNA oligomers were provided with short peptide carriers at both termini consisting of a trilysines segment at the C-terminus and one lysine at the N-terminus (FITC-PNA2) or Cys-Lys dipeptide at the N-terminus (FITC-PNA3) (Table 1), that was previously reported by Fabani et al. ([2010]) to promote cellular uptake for PNA single strands. Kelly cells were incubated for 24 h with FITC-PNA2 or FITC-PNA3 sequences individually, at minimal 0.1 μM concentration in optiMEM, without the use of any transfecting agent and using a protocol for miRNA mimics delivery, which was previously optimized (Curtin, [2018]). Both peptide carriers were able to provide internalization of PNA sequences albeit to a different extent (Figure 9A); uptake was slightly higher than 3% for FITC-PNA2 and almost 5% for FITC-PNA3.
Kelly cells were seeded in 6-well plates in duplicates at 0.5 × 10^6 density. […] The fluorescence of the cell lysate and of the media was read in a dual beam plate reader, at 485/535 nm.

## FITC- Ahx -CK - tggcagtg—KKK- NH2 [FITC-PNA3, PNA1 with Cys-Lys at N-terminus and KKK at C-terminus, FITC-Ahx; reported in previous work, used for comparison]
  Cellular uptake (internalization): ~5%

## FITC- Ahx -K- tggcagtg—KKK-NH2 [FITC-PNA2, PNA1 with K at N-terminus and KKK at C-terminus, Ahx linker and FITC fluorescent tag]
  Cellular uptake (internalization): higher than 3%
